Source: article PMC9170038

B1: Eterna 12242 (Exclusion 3) (ssRNA)
RNA: GACUAGGCAGGAUAUACAUGAGGAUCACCCAUGUGUCUGCGAUAGGCACGUGAUUACUGUAGAAGGGCCUUGAC
B2: Eterna 6145156 (Exclusion NG 1) (ssRNA)
RNA: UUAAAUCAUGUAGGAUAUGCAUGGCGAAGCUACGCAGAAGGACAUGAGGAUCACCCAUGUUAUAGCUACCGAAUAAGGUGGCAA
B3: Eterna 6450941 (Small Loop Exclusion NG 3) (ssRNA)
RNA: UGGACCGAGCUAUCGGUUGACUGGGAGGAUAUGACAUGAGGAUCACCCAUGUGGGAUCUAAAUUGUCAGAAGGCUCGUUCUGGG
B4: Eterna 7662739 (Exclusion - Arginine A) (ssRNA)
RNA: CGCGGGCCACAUGAGGAUCACCCAUGUGAAGGAGCGGCGAAUAAGCCAGGUAGGUCGCGCAUGAAUAAAUCAUGUAGGUGGCGAA
B5: Eterna 7612197 (Same State - Arginine B) (ssRNA)
RNA: ACGUAAAGCAGAAGGAGCGUCUUCAAUUUACAUGAGGAUCACCCAUGUUUUGUGAUCAUAUGACAGGUAGGUCGCUGAAGUACGA
B6: Eterna 6453699 (Inverted Same State NG 2) (ssRNA)
RNA: AGUUUGUUUGAGAAGGUGAAGUGGAAACAUGAGGAUCACCCAUGUAUUAGGAAGCCUGGUUUUGUCAAGGAUAUCGGGUAAACA
B7: Eterna 6402672 (Exclusion NG 2) (ssRNA)
RNA: UGGCCCGCCGGAGGAUAUCUACUCUGUGGUGCACUGCGUUUGCAAUACAUGAGGAUCACCCAUGUAGAGAAGGCCGAGGGCACA
B8: Eterna 7709739 (Same State - Tryptophan B) (ssRNA)
RNA: UAUAUAGUGACGGCCGCCACUAUAUUAAUGUUUAGGUUAGAGUGAUGUUUUGAUUAAUAUUUUUAUAGGACCGGGUUAUAUGUUA
B9: Eterna 11866 (Sensor v3, turn-off variant 2) (ssRNA)
RNA: CUUAGCCUAAAAUCACGCAAGCUUUCUGCUUGUCUUAAGACAUGAGGAUCACCCAUGUCCGGGCUGAACUUAUGGAA
B10: Eterna 6451659 (Inverted Exclusion NG 1) (ssRNA)
RNA: GCGUGGUUCUAGAAGGUGCUAGCGAUAAGCUAGCAAGGAUAUAGACAUGAGGAUCACCCAUGUCUUAGUGAAAUGGACACACGC
B11: Eterna 6083193 (Exclusion 6) (ssRNA)
RNA: CCAAGUUCGUAGGAUAUAGAUGCCUUAGGGCAAUUAGAAGGAUGGACAUGAGGAUCACCCAUGUCGGAUUCUGU
B12: Eterna 7652698 (Same State - Arginine A) (ssRNA)
RNA: CGGUCGGUCGGCCGGUGAUUAUGGGAUGAAGGAGCGUGGGAAGCUACAGGUAGGUCGCAUCCGAAACAUCACGAUCACGGAUGUU
B13: Eterna 6461477 (Inverted Same State NG 1) (ssRNA)
RNA: GCUGCAUGUGAGAAGGCGAUCAUGAAACAUGAUCGAGGAUAUCAUGUAAACAUGAGGAUCACCCAUGUAUGGGUAUUAAGCAGC
B14: Eterna 6381351 (Inverted Exclusion NG 3) (ssRNA)
RNA: CGAUAUAUGAAGGGCGAAAGCCCACAUGAGGAUCACCCAUGUAGAAGGCGGGCCGCAACGCGGCCCGAGGAUAUAUAAUAUACA
B15: Eterna 6443967 (Same State NG 2) (ssRNA)
RNA: CUAUAGAUAUGAGGAUAUGUAUAUCCAACAUGAGGAUCACCCAUGUUGAUGAUCACGUAUGUAAAGCAGAAGGCAUAUCUAUAG
B16: Eterna 7734981 (Same State - FMN A) (ssRNA)
RNA: UGUGAGCUGUCGACAAAAGUCGACUAAAGCGAGGAUAUGACGAAAGUCAGAAGGCGUCAAUAAUGGAGUGAUGUUCCUGCUCACU
B17: Eterna 6395528 (Inverted Small Loop Exclusion NG 1) (ssRNA)
RNA: ACAUGGUAGUAGAAGGGUAUUACUUUAGAUACAACCAUUUGUUUAGUUUAUACAGGAUAUGCUUACAUGAGGAUCACCCAUGUU
B18: Eterna 7653809 (Same State - Theophylline B) (ssRNA)
RNA: UGUAUGUGAUUUGAUACCAGACCAGCUGGUGGUACUUGAGGAACACCCAAGUAGGUUUGGGUCCCUUGGCAGCAAAUCGCAUACU
B19: Eterna 6401867 (Inverted Exclusion NG 1) (ssRNA)
RNA: CCGACGCCUCAGAAGGCACUCGCAUAAUGCGAGUGAGGAUAUGAGGAUCACCCAUAUCAACGUCGGAGUCACCGAAACGGUGAC
B20: Eterna 6080103 (Exclusion 1) (ssRNA)
RNA: CCCGGACAUGAGGAUCACCCAUGUUAGGAUAUCUAGAGGAUCUAAACCGAAUAGAUCCAGAGAAGGGAUGUGGG
B21: Eterna 5862108 (Exclusion NG 1) (ssRNA)
RNA: UCACGGGAUUGAGGAUAUAUAUUAAUUUUUUUUAUAGAAGGCAAAAUGUUAGAUUAUUCACUAUACAUGAGGAUCACCCAUGUU
B22: Eterna 6124182 (Same State NG 2) (ssRNA)
RNA: GUAGCAUGAUUAGGAUAUUCAGCGAAUAGAUUGACAUGAGGAUCACCCAUGUGGCGAAAGCCGAGGGAGAAGGGAUGAUGCUAC
B23: Eterna 6430560 (Small Loop Same State NG 3) (ssRNA)
RNA: ACUUAAAUACCCAAAAGUCGGGCGGAGGAUAUGGAGCUUCCACCACAUGAGGAUCACCCAUGUCUUCAGAAGGCCGCCCUUGGA
B24: Eterna 7734974 (Same State - Theophylline A) (ssRNA)
RNA: AAAAUAAAUAAAACACGUAACAUGAAGGAUACCAGACAGGAAACUGUCCCUUGGCAGCCUCUACAUGAGGAUCACCCAUGUCGUG
B25: Eterna 15533 (Exclusion 1) (ssRNA)
RNA: UCUCGACAUGAGGAUCACCCAUGUCAGGAUAUUGUGUUUGAGGUUUUUUACCUUUUGACAAGAAGGGAUGUGUG
B26: Eterna 6128104 (Same State NG 3) (ssRNA)
RNA: GCUCGAUGAGCUGUCUACAUGAGGAUCACCCAUGUAGAUGGGCAGGAUAUUUACGUGCUUUAUGUAGAGAAGGGCCCAUCGAGC
B27: Eterna 1752 (Same State - Tryptophan B) (ssRNA)
RNA: CUUUUACAGUCGGCCGCCACUGACAGCACUUCAAAGACAGUAUAAGGGUAGUGAUGUUACUUUAUCAGGACCGGGACUACCUAAC
B28: Eterna 6461519 (Inverted Same State NG 1) (ssRNA)
RNA: GUGCCUAACUAGAAGGCCCAAUGCAAAGCAUCGGGAGGAUAUGGGUUUAAUAAAUAAACAUGAGGAUCACCCAUGUGGCACAAA
B29: Eterna 12641 (Exclusion 3) (ssRNA)
RNA: AAUAGCUAAGGAUAUACAUGAGGAUCACCCAUGUAAAACACUACUUGGAACCGCCUCGGUAGAAGGUAGAAAAU
B30: Eterna 7692390 (Exclusion - Arginine A) (ssRNA)
RNA: AGUAGGAAACUACAAUCCUCUCUUACUGAAGGAGCGCGUGAAAACGCAGGUAGGUCGCAGGAUUGGAGAGUGAUGUUCUCCUUAA
B31: Eterna 7707528 (Exclusion - Tryptophan A) (ssRNA)
RNA: GGGAUGUAGUGAUGUUAUAUUGGAUGUAGACGAGGACCGGUACGGCCGCCACUCGUGAUGGCUGCUAGCACGUUUCGAUGUUUGC
B32: Eterna 7697396 (Exclusion - Arginine B) (ssRNA)
RNA: UGAUAGGACAGAAGGAGCGGGCUAGUCAAAGACUAGCAAACGUUAAUAACAGGAGUGAUGUUCCAGGUAGGUCGCUGUCCUAUCU
B33: Eterna 12668 (Exclusion 3) (ssRNA)
RNA: UAAAAGCUAGGAUAUACAUGAGGAUCACCCAUGUCACGGGUCCACUCAUCCUAUACGUGUAGAAGGAGCGACCC
B34: Eterna 6453269 (Small Loop Same State NG 3) (ssRNA)
RNA: CAGCGAUAGCUAAAGUAUCUAUCAGAGGAUAUUCAUGAAACAUGAGGAUCACCCAUGUGAAACUGGGAGAAGGCUGAUAGAUAG
B35: Eterna 7732393 (Same State - FMN B) (ssRNA)
RNA: AUUUUUUUGUCAGGAUAUUAGUGUGGGUUUGGUUUGUUAGUGAUGUUGAUAUUUGUUUUAUGUAUUUAAGAAGGGAUUUAGCGGU
B36: Eterna 9406 (Exclusion 4) (ssRNA)
RNA: UUCAUGUGAGGAUAUGUGAUCUGCUUUCUGUUUAGAUGAUCACAGAAGGCACAUGAGGAUCACCCAUGUAGAUC
B37: Eterna 6373941 (Exclusion NG 3) (ssRNA)
RNA: GUCACGGUUAAUUCCGUGACGCGCAAACCUUGAGGAUCACCCAAGGAUAUCGACGUCAAUGACGUCGAGAAGGUGGUUGAGCGC
B38: Eterna 6033767 (Exclusion 3) (ssRNA)
RNA: AGGGUAGUAGGAUAUACAUGAGGAUCACCCAUGUUUCCAUUACGUGACUGGUCCUAGUGUAGAAGGGCUAGCAC
B39: Eterna 5978372 (Brourd's mod of Exclusion 4) (ssRNA)
RNA: GCGUCUCCUGUCAGGAUAUGCACCGGCUCGCCGGCGUAGAAGGGACAUGAGGAUCACCCAUGUGGUCUACACUU
B40: Eterna 7670795 (Exclusion - Tryptophan B) (ssRNA)
RNA: GGAUAGGACACGGCCGCCACUACCUAGGAUACUAGCAACAUUUGGGUACGUGAGGAUCACCCACGUAGGACCGGGUGUCCUAUCG
B41: Eterna 6449046 (Small Loop Same State NG 1) (ssRNA)
RNA: AAUAAACACACAGGAUAUAGCAUCGUCGUUGCGAACUUAGCGACGACGAUGCUAGAAGGGUGAACACAUGAGGAUCACCCAUGU
B42: Eterna 6406790 (Exclusion NG 3) (ssRNA)
RNA: GUACUGAAGCUUUGCUUUAGUCGUACAUGAGGAUCACCCAUGUAGGAUAUGGUAGGCUUUGCUUACUAGAAGGAUAGAGUGAUU

What follows are binders tested against MS2 coat protein, dlFG mutant (Escherichia phage MS2, UniProt P03612, del68-81insG) (assay: 4 mM Mg2+; no ligand; RNA-MaP array; 100 mM Tris-HCl pH 7.5, 80 mM KCl, 4 mM MgCl2, 0.1 mg/mL BSA, 1 mM DTT, 0.01 mg/mL yeast tRNA, 0.01% Tween-20; protein 1.5 nM to 3 uM; 37 C (Table S3)). Details: chain copies: 2; label: tethered by stalled RNA polymerase.
Work on B1 yielded a Kd of 330 nM. B2 was tested, and the Kd was 91.1 nM. In the case of B3, the Kd is reported as 264 nM. For B4, the Kd was 18.3 nM. B5 was tested, and the Kd was 127 nM. In the case of B6, the Kd is reported as 15.2 nM. B7 showed a Kd of 269 nM. B8 showed a Kd greater than 3000 nM. B9 was tested, and the Kd was 18.5 nM. Binder B10 has a Kd of 4.84 nM. In the case of B11, the Kd is reported as 15.8 nM. B12 gave a Kd of 74.9 nM. B13 was tested, and the Kd was 272 nM. B14 gave a Kd of 7.35 nM. Binder B15 has a Kd of 8.38 nM. With B16 the Kd was greater than 3000 nM. B17 was tested, and the Kd was 9.28 nM. Binder B18 has a Kd of 177 nM. B19 was tested, and the Kd was 11.1 nM. B20 was tested, and the Kd was 34.3 nM. With B21 the Kd was 25.5 nM. B22 gave a Kd of 165 nM. B23 showed a Kd of 100 nM. With B24 the Kd was 246 nM. For B25, the Kd was 29.8 nM. In the case of B26, the Kd is reported as 191 nM. Binder B27 has a Kd greater than 3000 nM. B28 was tested, and the Kd was 46 nM. In the case of B29, the Kd is reported as 20.6 nM. B30 gave a Kd greater than 3000 nM. Work on B31 yielded a Kd greater than 3000 nM. With B32 the Kd was greater than 3000 nM. For B33, the Kd was 17.4 nM. In the case of B34, the Kd is reported as 14.2 nM. Binder B35 has a Kd greater than 3000 nM. Work on B36 yielded a Kd of 141 nM. Work on B37 yielded a Kd of 53.8 nM. B38 gave a Kd of 17 nM. B39 gave a Kd of 84.3 nM. B40 showed a Kd of 12.4 nM. B41 showed a Kd of 195 nM. In the case of B42, the Kd is reported as 54.4 nM.
